Data taken from patent publication US20210301005A1 (Genentech, published 2021).
Read-outs that look alike come from different tables or passages of the source.

What was measured:
[1] = target: T1, human TGFβ2, mature receptor-binding domain (human, UniProt P09858 303-414 (pig entry), The mature TGFβ2 is a disulfide-linked homodimer of this 112-residue chain. The 4A11 epitope spans both monomers (p-1207).); experiment: BIAcore T200
T1 construct: Peprotech; also called TGFb2
T1 sequence: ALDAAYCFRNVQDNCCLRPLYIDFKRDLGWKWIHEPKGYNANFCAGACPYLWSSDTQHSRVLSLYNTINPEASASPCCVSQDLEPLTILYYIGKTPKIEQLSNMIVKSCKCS
Outline: (§1)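 Humanized antibodies captured on protein A CM5 chip (~100 RU), then 3-fold serial dilutions of TGFβ (0.02–5 nM) injected in HBS-EP pH 7.4 at 25° C., 50 μl/min. kon and koff from 1:1 Langmuir fit; KD = koff/kon.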

[2] = target: T2, human TGFβ1, mature receptor-binding domain (human, UniProt P01137 279-390); experiment: BIAcore T200
T2 construct: Peprotech; also called TGFb1
T2 sequence (P01137 279-390 limits assumed): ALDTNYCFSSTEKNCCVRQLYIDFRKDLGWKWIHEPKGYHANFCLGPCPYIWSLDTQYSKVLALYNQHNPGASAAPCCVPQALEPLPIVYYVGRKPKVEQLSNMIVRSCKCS
Outline: as §1

[3] = target: T3, human TGFβ3, mature dimeric form (human, UniProt P10600 301-412); experiment: BIAcore T200
T3 construct: Peprotech, expressed in E. coli; also called TGFb3
T3 sequence: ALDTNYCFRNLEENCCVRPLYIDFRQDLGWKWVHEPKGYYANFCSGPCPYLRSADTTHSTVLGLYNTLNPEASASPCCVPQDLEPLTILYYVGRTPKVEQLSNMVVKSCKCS
Outline: as §1

[4] = target: T1, human TGFβ2, mature receptor-binding …; experiment: cell-based or functional assay
[5] = target: T2, human TGFβ1, mature receptor-binding …; experiment: cell-based or functional assay
[6] = target: T3, human TGFβ3, mature dimeric form; experiment: cell-based or functional assay
[7] = target: T1, human TGFβ2, mature receptor-binding …; experiment: cell-based or functional assay; remark: listed apart in the source
[8] = target: T2, human TGFβ1, mature receptor-binding …; experiment: cell-based or functional assay; remark: listed apart in the source

Kd [1]: 1.6 pM | Kd [2]: > 5 nM | Kd [3]: 1.2 pM | HEKBlue TGFβ blocking IC50 [4]: 0.09 nM | HEKBlue TGFβ blocking IC50 [5]: > 200 nM | HEKBlue TGFβ blocking IC50 [6]: 0.06 nM | HEKBlue TGFβ blocking IC50 [7]: 0.09 nM | HEKBlue TGFβ blocking IC50 [8]: > 200 nM
B1: 4A11 (antibody, V domains shown)
VH: QSLEESGGRLVTPGTPLTLTCTVSGFSLSSYTVNWVRQAPGKGLEWIGYISYGGSAYYASWANGRFTISKTSATVDLKITSPTTEDTATYFCARHMQVGGAPTGSMAAFDPWGPGTLVTVSS
VL: AAVLTQTPSPVSAAVGGTVSISCQSSQSVYNNNYLSWFQQKPGQPPKLLIYGASTLTSGVPSRFKGSGSGTQFTLTISDVQCDDAATYYCAGGYSGSSDKYAFGGGTEVVVKG
notes: anti-TGFβ2/3, recombinant rabbit monoclonal; some paragraphs print the H/L pair as 32/33; also called Rb1.4A11; Rbt 4A11
